Laboratory results from article PMC9927813, “Discovery of DNA aptamers targeting SARS-CoV-2 nucleocapsid protein and protein-binding epitopes for label-free COVID-19 diagnostics”.

Key:
[1] = molecular target: SARS-CoV-2 S1 protein (SARS-CoV-2, UniProt P0DTC2 13-685); assay: BLI; BLI ([…], DPBS + 0.5 mM MgCl2 + 1 mM CaCl2, pH 7.4; […] (PBST); conditions: protein: commercial
[2] = molecular target: T1, SARS-CoV-2 nucleocapsid (N) protein, wild type (SARS-CoV-2 (wild type), UniProt P0DTC9 1-419); assay: BLI; aptamer on streptavidin sensor, PBST; BLI ([…], DPBS + 0.5 mM MgCl2 + 1 mM CaCl2, pH 7.4; […] (PBST); conditions: protein: commercial; tags: His; chain copies: 2
[3] = molecular target: T1, SARS-CoV-2 nucleocapsid (N) protein, …; assay: BLI; N protein on Ni-NTA sensor; BLI ([…], DPBS + 0.5 mM MgCl2 + 1 mM CaCl2, pH 7.4; […] (PBST); conditions: protein: commercial; tags: His; chain copies: 2
[4] = molecular target: T1, SARS-CoV-2 nucleocapsid (N) protein, …; assay: BLI; BLI ([…], DPBS + 0.5 mM MgCl2 + 1 mM CaCl2, pH 7.4; […] (PBST); conditions: protein: commercial; tags: His; chain copies: 2
[5] = molecular target: SARS-CoV-2 N protein, in-house (SARS-CoV-2 (wild type), UniProt P0DTC9 1-419); assay: BLI; aptamer on streptavidin sensor, PBST; BLI ([…], DPBS + 0.5 mM MgCl2 + 1 mM CaCl2, pH 7.4; […] (PBST); conditions: protein: recombinant; chain copies: 2

B1: biotinylated tNSP2 (ssDNA)
DNA: CTGACTGTAACCACGTATTGCGTTCCAGTCCCTATGACCAACGTCACAATAAGTCGCATAGGTA
[1]
  binding result: no binding
[2]
  Kd: 4.51 ± 1.5 nM

B2: tNSP2 (ssDNA)
DNA: CTGACTGTAACCACGTATTGCGTTCCAGTCCCTATGACCAACGTCACAATAAGTCGCATAGGTA
[3]
  Kd: 3.04 ± 1.53 nM

B3: tNSP10 (ssDNA)
DNA: CTTATGCACCAGGGGCCCGGTTCGGGCAGGCGCAAACACGGCATAGG
[4]
  Kd: 8.6 ± 1.2 nM

B4: NSP2 (ssDNA)
DNA: CTCCTCTGACTGTAACCACGTATTGCGTTCCAGTCCCTATGACCAACGTCACAATAAGTCGCATAGGTAGTCCAGAAGCC
[4]
  Kd: 4.38 ± 1.21 nM

B5: biotinylated tNSP3 (ssDNA)
DNA: CAGCGTCACGTGTTGTTCCCCATTGTACTGATTCGTCGTGGCAT
[1]
  binding result: no binding
[5]
  Kd: 7.52 ± 0.5 nM
[2]
  Kd: 2.91 ± 1.02 nM

B6: tNSP3 (ssDNA)
DNA: CAGCGTCACGTGTTGTTCCCCATTGTACTGATTCGTCGTGGCAT
[3]
  Kd: 5.77 ± 1.17 nM

B7: biotinylated tNSP1 (ssDNA)
DNA: TAACCACGGCGCAAGCCGGGGTGTACGTGTTATACGTGCGTGTATCGAG
[1]
  binding result: no binding
[2]
  Kd: 4.83 ± 1.09 nM

B8: tNSP1 (ssDNA)
DNA: TAACCACGGCGCAAGCCGGGGTGTACGTGTTATACGTGCGTGTATCGAG
[3]
  Kd: 4.53 ± 0.96 nM

B9: tNSP12 (ssDNA)
DNA: TGTAACCACGTGGTTCGCCCAGTTCCGTTCAATACACTCAACCCTGCACGGCATAGGTA
[4]
  Kd: 6.05 ± 2.41 nM

B10: A48 (ssDNA)
DNA: GCTGGATGTCGCTTACGACAATATTCCTTAGGGGCACCGCTACATTGACACATCCAGC
[4]
  Kd: 6.46 ± 1.04 nM

B11: NSP3 (ssDNA)
DNA: CTCCTCTGACTGTAACCACGCAGCGTCACGTGTTGTTCCCCATTGTACTGATTCGTCGTGGCATAGGTAGTCCAGAAGCC
[4]
  Kd: 8.6 ± 1.06 nM

B12: tNSP9 (ssDNA)
DNA: TGTAACCACGTGCTAGATTACGTAACTGGTTGCTACGGGTTTCATCCTCGGCATAGGTA
[4]
  Kd: 22.2 ± 1.87 nM

B13: tNSP5 (ssDNA)
DNA: ATTCATGCGCCAATAGTGGTTTGGAAATGTCTCCCCATACGCATAG
[4]
  Kd: 12.6 ± 2.56 nM

B14: NSP1 (ssDNA)
DNA: CTCCTCTGACTGTAACCACGGCGCAAGCCGGGGTGTACGTGTTATACGTGCGTGTATCGAGCATAGGTAGTCCAGAAGCC
[4]
  Kd: 7.86 ± 1.17 nM
